Test results published in PMC6937582, “Human leukocyte antigen (HLA) class II peptide flanking residues tune the immunogenicity of a human tumor-derived epitope” (The Journal of Biological Chemistry, 2019).

How the values were obtained:
[1] = biological target: HLA-DR1 (HLA-DRα*0101 and HLA-DRβ1*0101) (human); test: ELISA; competitive peptide-binding assay: test peptide 10^-4-10^-10 M against 4.5 nM biotinylated CLIP 99-117 marker peptide for 0.1 μg refolded HLA-DR1-CLIP 105-117; 20 mM MES, 140 mM NaCl, 0.02% NaN3, pH 5, overnight at 37 °C; HLA-DR1 captured on anti-DR L243, bound marker detected with streptavidin-HRP; % competitive inhibition, four-parameter fit
[2] = biological target: HLA-DR1 (HLA-DRα*0101 and HLA-DRβ1*0101); test: in vitro competition assay (HLA-DR1 peptide binding); conditions: chain shown with the change

Binder | IC50 [1] [nM] | IC50 [2] [nM]
FARRPPLAELAALNLSGSRL [5T4_(111–130) 20-mer peptide] | 176 | 
FARRPPLAELAAANLSGSRL [5T4_(111–130) 20-mer peptide L7A] |  | 725

More lines, in order of falling IC50 [2], values ahead:

IC50 [1] [nM] | IC50 [2] [nM] | Binder
 | 255 | FARRPPLAELAALNLSRSRL [5T4_(111–130) 20-mer peptide G11R]
 | 144 | FARRPPLAELAALALSGSRL [5T4_(111–130) 20-mer peptide N8A]
